From the supplement of paper PMC10899765 come the findings set out here.

Common to all, as to conditions: 20 nM; 72 h
Series [1] concerns MCF10A. Put plainly: 5+ nucleoli phenotype percent effect (relative to siNT 0% and siKIF11 100%); higher = more cells with five or more nucleoli. Here is the method:
(§1)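 After 72 h, cells were fixed and stained with Hoechst and anti-fibrillarin, and nucleoli per nucleus were counted with CellProfiler. Values are plate-adjusted percent effect for the one-nucleolus and 5+ nucleoli phenotypes, normalised to siNT (0%) and to the positive controls siNOL11 or siKIF11 (100%), as the mean of biological triplicates. Percent viability is the nuclei count relative to siNT.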

Series [2] concerns MCF10A. Put plainly: one-nucleolus phenotype percent effect (relative to siNT 0% and siNOL11 100%); higher = more cells with one nucleolus (ribosome biogenesis inhibition). As for the experimental part:
as §1

Series [3] has as its system MCF10A. Put plainly: percent viability (nuclei count relative to siNT); higher = more viable cells. As for the experimental part:
as §1

Take “UGUGUACACACGUGCCAGGCGCU [hsa-miR-3177-5p]”: in series [1], the “5+ nucleoli phenotype percent effect” value worked out at 61.9%. For the same sequence, the “one-nucleolus phenotype percent effect” value in series [2] is -22.2%. Moreover, the percent viability in series [3] stood at 131%.

Take UGUGUCACUCGAUGACCACUGU [hsa-miR-597]: the “5+ nucleoli phenotype percent effect” value in series [1] was -3.83%. In series [2], the “one-nucleolus phenotype percent effect” value worked out at 13.9%. For the same sequence, the percent viability in series [3] came to 47.8%.

UGUGUCCCAUUAUUGGUGAUU [hsa-miR-3657]: in series [1], the “5+ nucleoli phenotype percent effect” value is -31.6%. The “one-nucleolus phenotype percent effect” value in series [2] was determined as 32.2%. In addition, in series [3], the percent viability is 46.6%.

For the sequence UGUGUCCGGGAAGUGGAGGAGG [hsa-miR-4669], in series [1], the “5+ nucleoli phenotype percent effect” value is -24.1%. In series [2], the “one-nucleolus phenotype percent effect” value is 2.82%. Besides, the percent viability in series [3] was 74.6%.

Turning to “UGUGUGUGUAGAGGAAGAAGGGA [hsa-miR-6867-5p]”, the “5+ nucleoli phenotype percent effect” value in series [1] is -22.4%. Also, in series [2], the “one-nucleolus phenotype percent effect” value is 64.8%. Further, in series [3], the percent viability is 13.1%.

With “UGUGUUAGAAUAGGGGCAAUAA [hsa-miR-3152-3p]”, the “5+ nucleoli phenotype percent effect” value in series [1] was -11.7%. Further, the “one-nucleolus phenotype percent effect” value in series [2] was determined as 4.92%. Further, the percent viability in series [3] stood at 35.1%.

As to UGUUCAUGUAGAUGUUUAAGC [hsa-miR-1206], the “5+ nucleoli phenotype percent effect” value in series [1] was 42.5%. Besides, the “one-nucleolus phenotype percent effect” value in series [2] was -22.5%. For the same sequence, the percent viability in series [3] worked out at 95.8%.

For “UGUUCAUUGGAACCCUGCGCAG [hsa-miR-6853-3p]”, the “5+ nucleoli phenotype percent effect” value in series [1] stood at 29%. Also, the “one-nucleolus phenotype percent effect” value in series [2] is -28.7%. In addition, in series [3], the percent viability worked out at 79.8%.

With UGUUCCUCUGUCUCCCAGAC [hsa-miR-4326], the “5+ nucleoli phenotype percent effect” value in series [1] is -25.5%. Moreover, in series [2], the “one-nucleolus phenotype percent effect” value came to 18.8%. The percent viability in series [3] stood at 32.4%.

With UGUUCUCUUUGCCAAGGACAG [hsa-miR-2117], the “5+ nucleoli phenotype percent effect” value in series [1] came out at 4.15%. The “one-nucleolus phenotype percent effect” value in series [2] was -0.405%. The percent viability in series [3] is 56.1%.

On to “UGUUGCAAGUCGGUGGAGACGU [hsa-miR-4684-3p]”, for which the “5+ nucleoli phenotype percent effect” value in series [1] is -9.23%. For the same sequence, in series [2], the “one-nucleolus phenotype percent effect” value stood at 4.39%. In addition, in series [3], the percent viability is 43.9%.

In the case of UGUUGGGAUUCAGCAGGACCAU [hsa-miR-4425], the “5+ nucleoli phenotype percent effect” value in series [1] is -29%. For the same sequence, the “one-nucleolus phenotype percent effect” value in series [2] was found to be 19.2%. Moreover, the percent viability in series [3] was determined as 27.3%.

Consider “UGUUGUACUUUUUUUUUUGUUC [hsa-miR-3613-5p]”, for which, in series [1], the “5+ nucleoli phenotype percent effect” value worked out at 4.98%. The “one-nucleolus phenotype percent effect” value in series [2] was -10.4%. For the same sequence, in series [3], the percent viability was determined as 114%.

As to “UGUUGUCAUGUUUUUUCCCUAG [hsa-miR-6755-3p]”, the “5+ nucleoli phenotype percent effect” value in series [1] is 34.6%. In series [2], the “one-nucleolus phenotype percent effect” value is -6.42%. In series [3], the percent viability was found to be 26%.

Consider UGUUUCGGGGCUCAUGGCCUGUG [hsa-miR-5705], for which the “5+ nucleoli phenotype percent effect” value in series [1] amounted to 33.2%. Also, the “one-nucleolus phenotype percent effect” value in series [2] is -18.8%. Also, the percent viability in series [3] is 136%.

Consider UGUUUGUUGUAAGGAUCGUUGU [hsa-miR-8068], for which the “5+ nucleoli phenotype percent effect” value in series [1] was -15.7%. Also, the “one-nucleolus phenotype percent effect” value in series [2] worked out at 7.78%. Further, in series [3], the percent viability was found to be 34.1%.

As to UGUUUUGAUAACAGUAAUGU [hsa-miR-2052], the “5+ nucleoli phenotype percent effect” value in series [1] amounted to 5.44%. The “one-nucleolus phenotype percent effect” value in series [2] stood at 0.685%. Further, the percent viability in series [3] is 144%.

Turning to “UUAACUCCUUUCACACCCAUGG [hsa-miR-4764-3p]”, the “5+ nucleoli phenotype percent effect” value in series [1] is 15.3%. Also, in series [2], the “one-nucleolus phenotype percent effect” value was -18%. Further, the percent viability in series [3] was 91.4%.

Consider UUAAGACUUGCAGUGAUGUUU [hsa-miR-499a-5p], for which the “5+ nucleoli phenotype percent effect” value in series [1] is -1.56%. Besides, the “one-nucleolus phenotype percent effect” value in series [2] is 5.05%. In series [3], the percent viability came to 102%.

Regarding UUAAUAUCGGACAACCAUUGU [hsa-miR-889], the “5+ nucleoli phenotype percent effect” value in series [1] turned out to be 0.0778%. Moreover, the “one-nucleolus phenotype percent effect” value in series [2] was -0.642%. Further, the percent viability in series [3] was found to be 108%.

As to “UUAAUGCUAAUCGUGAUAGGGGU [hsa-miR-155-5p]”, the “5+ nucleoli phenotype percent effect” value in series [1] was -38.5%. The “one-nucleolus phenotype percent effect” value in series [2] was 8.74%. Besides, the percent viability in series [3] was 38.2%.

In the case of UUAAUUUUUUGUUUCGGUCACU [hsa-miR-4775], the “5+ nucleoli phenotype percent effect” value in series [1] worked out at 21.1%. Moreover, the “one-nucleolus phenotype percent effect” value in series [2] was -18.6%. For the same sequence, the percent viability in series [3] stood at 88.3%.

Turning to UUACACACAACUGAGGAUCAUA [hsa-miR-3941], the “5+ nucleoli phenotype percent effect” value in series [1] came to 0.22%. In addition, the “one-nucleolus phenotype percent effect” value in series [2] is 7.76%. Besides, the percent viability in series [3] was found to be 16.8%.

Take UUACACAGCUGGACAGAGGCA [hsa-miR-4672]: the “5+ nucleoli phenotype percent effect” value in series [1] is -34%. In series [2], the “one-nucleolus phenotype percent effect” value stood at 38.5%. Further, in series [3], the percent viability was 17.6%.

As to UUACAGGCGUGAACCACCGCG [hsa-miR-5095], the “5+ nucleoli phenotype percent effect” value in series [1] was -7.36%. Moreover, the “one-nucleolus phenotype percent effect” value in series [2] stood at 15.8%. For the same sequence, the percent viability in series [3] was 12.8%.

Turning to “UUACAGUUGUUCAACCAGUUACU [hsa-miR-582-5p]”, in series [1], the “5+ nucleoli phenotype percent effect” value came out at 12.8%. In addition, in series [2], the “one-nucleolus phenotype percent effect” value was -29.2%. For the same sequence, the percent viability in series [3] amounted to 165%.

Take UUACGGACCAGCUAAGGGAGGC [hsa-miR-4788]: in series [1], the “5+ nucleoli phenotype percent effect” value was found to be 9.13%. Besides, the “one-nucleolus phenotype percent effect” value in series [2] is -0.639%. Also, the percent viability in series [3] is 43.7%.

In the case of UUAGAACGUUUUAGGGUCAAAU [hsa-miR-5687], the “5+ nucleoli phenotype percent effect” value in series [1] was 16.2%. Further, the “one-nucleolus phenotype percent effect” value in series [2] is -12.4%. The percent viability in series [3] turned out to be 50.5%.

As for UUAGACCUAGUACACGUCCUU [hsa-miR-3684], the “5+ nucleoli phenotype percent effect” value in series [1] was determined as 16.1%. Also, the “one-nucleolus phenotype percent effect” value in series [2] is -19.2%. Further, the percent viability in series [3] stood at 85.2%.

In the case of “UUAGAGGCUGGAAUAGAGAUUCU [hsa-miR-6866-5p]”, the “5+ nucleoli phenotype percent effect” value in series [1] is -0.659%. Further, the “one-nucleolus phenotype percent effect” value in series [2] is 9.98%. For the same sequence, in series [3], the percent viability is 14.1%.

Turning to “UUAGCCAAUUGUCCAUCUUUAG [hsa-miR-4662a-5p]”, the “5+ nucleoli phenotype percent effect” value in series [1] was found to be 1.03%. Further, in series [2], the “one-nucleolus phenotype percent effect” value was determined as 9.07%. In series [3], the percent viability is 33.5%.

As to UUAGCGGUGGACCGCCCUGCG [hsa-miR-4321], the “5+ nucleoli phenotype percent effect” value in series [1] stood at 3.56%. For the same sequence, the “one-nucleolus phenotype percent effect” value in series [2] is -12.2%. The percent viability in series [3] is 47%.

Turning to “UUAGCUUAAGGAGUACCAGAUC [hsa-miR-5579-3p]”, the “5+ nucleoli phenotype percent effect” value in series [1] was found to be 7.97%. In addition, the “one-nucleolus phenotype percent effect” value in series [2] is -7.52%. For the same sequence, in series [3], the percent viability stood at 65.6%.

In the case of UUAGGCCAUCAUCCCAUUAUGC [hsa-miR-5704], in series [1], the “5+ nucleoli phenotype percent effect” value came to 46.5%. Also, the “one-nucleolus phenotype percent effect” value in series [2] is -23.2%. In series [3], the percent viability stood at 181%.

For the sequence UUAGGCCGCAGAUCUGGGUGA [hsa-miR-1295a], the “5+ nucleoli phenotype percent effect” value in series [1] was -12.5%. Besides, the “one-nucleolus phenotype percent effect” value in series [2] is 8.73%. Further, the percent viability in series [3] came out at 33.2%.

Turning to “UUAGGGAGUAGAAGGGUGGGGAG [hsa-miR-3162-5p]”, the “5+ nucleoli phenotype percent effect” value in series [1] is -5.7%. Moreover, the “one-nucleolus phenotype percent effect” value in series [2] came out at 8.12%. In series [3], the percent viability was found to be 52.8%.
